From PMC7094161

Tests used:
[1] = molecular target: CDC25C substrate peptide of the EKAR construct; test: FRET or BRET; FRET/FLIM: EGFP fluorescence lifetime of EKAR constructs (WW domain and peptide on one chain) in fixed, mounted COS cells; serum in the medium
[2] = molecular target: CDC25C substrate peptide of the EKAR construct; test: FRET or BRET; FRET/FLIM: EGFP fluorescence lifetime of EKAR constructs (WW domain and peptide on one chain) in living COS cells; serum in the medium

Chain of Pin1 WW domain of the EKAR construct (Q13526 5-39): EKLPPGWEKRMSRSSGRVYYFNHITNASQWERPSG

Pin1 WW domain of the EKAR construct (from UniProt Q13526 5-39) (domain or fragment)
EGFP fluorescence lifetime [1]: 1.68 ns | EGFP fluorescence lifetime [2]: 2.12 ns
